Stoichiometry N data for 1 substance are collected here from publication PMC12381156.

The assay deals with G protein-coupled bile acid receptor 1 (GPBAR1), full-length human, with N-terminal FLAG and BRIL (human) (UniProt Q8TDU6). The assay can be described thus: mass photometry; samples in 20 mM HEPES, 150 mM NaCl, 0.02%/0.002% LMNG/CHS, drop-diluted in PBS to 10 nM (apo-GPBAR1) and 30 nM (GPBAR1/Gs complex with P395 and Nb35); room temperature (18 °C).
Chain of UniProt Q8TDU6 (Q8TDU6 whole entry): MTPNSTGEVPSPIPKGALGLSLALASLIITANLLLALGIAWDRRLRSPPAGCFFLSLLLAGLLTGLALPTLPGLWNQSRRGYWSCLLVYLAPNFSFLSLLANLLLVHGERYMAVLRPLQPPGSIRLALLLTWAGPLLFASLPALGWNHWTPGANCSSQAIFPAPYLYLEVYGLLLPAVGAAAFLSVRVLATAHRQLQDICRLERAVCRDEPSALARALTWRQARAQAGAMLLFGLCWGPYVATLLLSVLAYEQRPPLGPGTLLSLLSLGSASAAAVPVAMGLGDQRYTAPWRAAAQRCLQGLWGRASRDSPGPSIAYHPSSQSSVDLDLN

The substance “Gs heterotrimer (Gαs, Gβ1, Gγ2) (from UniProt P63096 1-18; P63092 16-394; P62873 2-340; P59768 1-71) (complex)” gave a stoichiometry N of 1.
